Reference: the DeepSol protein solubility set

Test: soluble on expression in E. coli; label from the status in PepcDB or PDB records

Sequence	soluble on expression in E. coli
MGSDKIHHHHHHMKIVFITTVASSIYGFRAPVIKKLIGKNHQVYAFVSEFSDNELDIIREMGVTPVTYRSNRSGVNPFSDIKSTFLIFKALKKISPDLVFPYFAKPVIFGTFAAKLAGVPRIVGMLEGLGFAFTPQPEGIPLKTKIIKGILIALYRIALPMLESLIVLNPDDKDELLHQYGIKIKNIHILGGIGLDLRQYPYSEADIPDEKEPVKFLFIGRFLKEKGIDDFIRAAEQVKGKYPDTVFTALGAIDKSRGGGGDLERFIARDIIRFPGFVNNVSEVIKAHHIFVLPSYYREGVPRSTQEAMAVGRAVITTDVPGCRETVADKVNGFLIEPWNPRILAEKMIYFIENRAAVRLMANASYAIAKDKFDAEKVDLKFLDILKA	not soluble
MAQINFEGLRELHDCVNYLLHHCPKTRESLSQQGQEKWTEQVSEASLRMLDICNVSKDVMTLVKHSLQDLQLTLRGNESSDVNEKIAAYNRYKNKLKKETLKCLNCLKNMKGNEGRVAMPIEQNLLFVTEVLKEVRRVVVTMVESLFSLGCIPWLEKRSSKGSLSSIFSIRSSYLLDDEWDETAVQSATTRLEAAEITVVELEIELESIFRRLIQTRVSLLNILTN	soluble
GPGSMTSVETRIQALVQRYTLMENNINKLRKALASLGEGQQNANTTPRNEATAVAHHRDPCDLKELQPCPQDTPEVAALRRWCIEHSLTTAVFRWVPSDYYQHTLQWRRDELAAPSVHHLCKSILMENTHCTNKDCGVRENSRYYLIVYPYTEKFDAEMVMRHVKGLNEGLGKKKFNFRLAAPDVALQLTGFGHGAVAPFGTPTEIPVILSDKILQLTPAVFWMGGGHVDCKVRVDVEQFMEVIKPIVASVTTPLSAEELGQLVD	soluble
MDQTNENVKESEPPSDDGPPILSVLCSLVDEIGSLRNENLRLKTRLVPAPRNTKNVVQRMSAMLEHRGSSIFPKLRRANRSSESMEIRNGARERLSTPPRKETSNSMNTSSDVSYGRNRAPPIVRPEQSDSEIDEQIFDDDDHRSRDTTRRCDSVNVPRHQNDNSTSACTSPSSASSSRDPSETMTTSRSSFLDLLGLRRRSTHIPQPTSYSKTTALKQTNKKRRRKISGNDNDSESSGMYANMEDHCSRVPSKPPRPASYYRRDDSEDSDCLRQMRQRKTASSLNVNNYEHRHEDMYRVSRETQWQHEKDNLMAEIEEMKMRNNRLVEQLREKSQQQSKLQCQLHKAEMQVNALSRRCALSEALDRLTLDERMEKSATSWIKKIEERLRIFENQMQNAKLEAATAHQMALNSSCHEKDAHQNCLEKLESLQREHMRVIHSSLVEIGVDEINMKRRLENLPTYEALYAFTHSVVRRLNEARWAVIEKTNETSRAQIDLIVSQSSHLVSLAQLERLKIMQTLRGKRQKRPSSFHGHSVSERNIRQDLSFYLPLKLHGSRVENSRRTIKKNAIVGNDRNIEEEFLKLFSYSKDFSMELAAPPERRANTRIETMMREMNGNGRPIIRRGPSGVSNSNIMRDRVTREVPSNRRPISLVETEERRIRRNEETKRSIKFMKTNSIDHGYNAYEPPPASRTTTTTIVASTQDISNNVHSPHGTPVFTRRIIIPVKGNAYDIVPEGTTANIVPANIPQMGRVRKLERAFSAESRNTVDSLHDREEQRRERRDHVEGGVERRQSKIQRSQPVSRLKQPSVQLSKFRTIENNGANREPPSSSILRPRTLEPQTSIPRITTSPPESRIPTPSSRHGNEKRGWLERLKGIGKL	not soluble
MTVIETPVKSVICMTSLQLSNFIKLDALSHVVGITSTRHLFNKEMNERLKQGKTAKIGIEGNFDNEVIMSVNPDVIFISPFKRGGYDAMREVGIPLVPHLGYKEMTPLGQAEWIKFIGLFIGEEETANRKFAAIEKHYNELKERVAHVKKRPVLEHHHHHH	not soluble
MAHHHHHHMRRFCTARVSSYVKRAPLLLPRGGRRWRSGAGTTADGGGEKEYIADSFESTAGSNAYAAMELAAEARREIHELWLSAETALEREKRVQQVAALIEKYKLDPSTPREADVSRGLGDAFDRLLLLCLPLGKTDAKGTDNLERLMHLAGRNGRELSVRTIQHLFARTDSFAEALAVFYTMRRCHVAMNMEAYYSMLYSLQRLEEEGWGQHFRNEYEENGAPSEQAMDFIVKGISNALLPENKPWLGRVMFQDRNVPDRRYDTRDFDELDTAWTQRYKSGTPAGAH	not soluble
MGSDKIHHHHHHMKFYNRENELAELQRIQELSFEENSRLTVVTGRRRIGKTSLIMRAFEKTPTIYLFVGRKNEASLCREFITLVSQALDIYVPEEISTFKSLFRYIMEVATRQSFNLVIDEFQEFYNINKSIYSDIQDIWDQYRQKTHMNFVVSGSIYSLMEKIFHNEKEPLFGRADNIIKLSAFSLNVLKKIIKDYHPQYTNDDLLALYSFSGGVPKYVELFCDNRVLTVDGMIDFMVRDNSPFTDEGKNLLIEEFGKNYGTYFSILSAISGGYNTQTEIEALLGEKSLGGYLKRLIEDYNIVVRQRPVFSKEGSQTVRYGICDNFIHFWFNYFDRNRSLIEIKNFIGLRKLIKADYPTYSGKILEQYFKQKYAESYEFRLIGSWWEPKGNQNEIDIVAIYLDNKSAIVAEVKRQKKNFKPELFQKKVEHLENKVLAKYQINTVCLSLEDM	not soluble
MGSSHHHHHHGGTGENLYFQGGSGPSSVAYVLGTESCGKTDLVHQLEYLTLGLVRTVPTACTPTTGQEVTKLNICSPAGKGKVTVEVRELGGSLVNTWESFIESRKARDGGSGDTSFLLIYVVDGVAPHQLPLASTMFRYLTQGRHAPCAGWPTLITVQKCASVNAITAEEVRSFFLDEVEAPANVDVVEVDSWNGIGTGDVLKGIEAVFGGLQ	not soluble
MKNEMLALILAGGQGTRLGKLTQSIAKPAVQFGGRYRIIDFALSNCANSGIHNVGVVTQYQPLALNNHIGNGSSWGLDGINSGVSILQPYSASEGNRWFEGTSHAIYQNIDYIDSVNPEYVLILSGDHIYKMDYDDMLQSHKDNNASLTVAVLDVPLKEASRFGIMNTDANNRIVEFEEKPAQPKSTKASMGIYIFDWQRLRNMLVAAEKSKVGMSDFGKNVIPNYLESGESVYAYEFSGYWKDVGTIESLWEANMEYISPENALDSRNRQWKIYSRNLISPPNFLGANAHVEDSLVVDGCFVDGTVKHSILSTGAQVREGAEVLDSVIMSGAIIGQGAKIKRAIIGEGAIISDGVEIDGTDEVQVVGYNEVVGVATDED	not soluble
MAPIRRSSRLAERYDAIESKKRSLKRLEEQIKAEEEQFSDKMKQLEDEIKIKEQVITMFKRKTVRREWMRNSRQATTNINIAQIESLKLQLEEGEKDIAEAEKQAEPTTPQQEAELSETFKQMVRDRMKVKDVDEKLLQQYMKKENVEFEWRSCFICTMEYSRTDKNLHPIILNCGHNLCRSCINKLTGNGIVKCPFDRLDTRVRVTGLPRNLALINL	not soluble
MGSDKIHHHHHHMKQDTIHINGLSIGYHSKSSTKLVAKGIHSTIYSGELTCLLGANGVGKSTLLRTLSAFQPKLDGEILVLGKDIDTYSDKELSTTIGVVLTDKCEIRNMLVRELVGMGRSPYTGFWGKLSKDDKRIVEESIALVRIEELASRMVHTLSDGERQKVMIAKALAQETPVIYLDEPTAFLDFPSKVEIMQLLHHLTRKTNKTIFMSTHDLELALQISDKIWLMDKANGISTGTPEDLALSGHLSNFFARKGIVFDKDTGLFRIDNQFSRQIRLVGHGQKYAMVRKGLQRNGILANREVESNIWIETGDLKTTHFIIHETSGGTYITQTIEELLAYFDTEKS	not soluble
MSSIRYRRPPIIERRYERTPSYSTIPRDIHVSFYHNNYHRSKILYLNKFNAMEKLIEAAHELYPSNGVYRLFSDSTIGAQNELNDSVQVMECVQNPDHILPHLHIRLEDYRPRSISRNYHEVNVPIIRTPSQHSIHQSVRFNDNKRHHHHHHHDSIRNFVHHDTPCRNCFRIIVGSRYHCLQCPDYDICGDCEKDLVHYEHALLRIVTPRVTSIPDYVTVNAPSYIFPEHRYDIKREHYHWF	not soluble
MKHYDSMDQELITMPISNAFLKLFSEFVDNYARNGTPSFYHWAKEQNHEVINKFFHELLEIIKSNTETFHDVSIIEHLNATVLLSAKTNPYLLDCWISFITKYNAETNSFTPIGASMHIKVGPEGTPSERIIRELKESLVMTQQAFILAQKANATEVDSLKRQLEQTKQENERLVTQNQFLKDQVRAEKTFADLNPQINNARQQLSALTELIQTLSEITNAKPKIETVSSLSIPVVTENKSELLKENSCSVASVSKEVTPAISQEPKKRPVPPPPNDTDGQALSPNIPPKEDVSIKVTIPSMPKPNSTQPAAKNSGFFSGDGFLKELNAKIKERKERPKDEPHTTPVEKKNL	not soluble
MQKFDTRTFQGLILTLQDYWARQGCTIVQPLDMEVGAGTSHPMTCLRELGPEPMAAAYVQPSRRPTDGRYGENPNRLQHYYQFQVVIKPSPDNIQELYLGSLKELGMDPTIHDIRFVEDNWENPTLGAWGLGWEVWLNGMEVTQFTYFQQVGGLECKPVTGEITYGLERLAMYIQGVDSVYDLVWSDGPLGKTTYGDVFHQNEVEQSTYNFEYADVDFLFTCFEQYEKEAQQLLALENPLPLPAYERILKAAHSFNLLDARKAISVTERQRYILRIRTLTKAVAEAYYASREALGFPMCNKDKLEHHHHHH	not soluble
MSPSKLSNDETPPDLDFRFTGIKQRLIKSENVKQVTASWKRLLVEINKEFTEIAKIGPSYVPKCDFIDIKDNKLPQQVSELFKQRGCLMIENVIDVDRIDIWFNELVEFCKTHPETAGYTFPNPTSWYNVFWSKPQTEARFHPNIKAIFKAMSKEFYVEDKENCLIDLDTQLVYGDRIRIREPGKAAALPLHLDSSSIERWEDIMYSEVYKSIFEGDWENWDAFKLDERTYSKENLYKDEDDTGGKSTICSSFRTLQGWLALSNNKSGEGTLRVLPSLKLSMAYIMLRPFFWKDPESGNIDDYEIDMITPKFPGTVPGTGQLFLDKFYPHLHQGIISIPDVKKGSFVFWHCDLPHEVDREHNGNGHSSVLYYGQTPLSITNIQTLLDTRDAFLKNISPADYRSQLNEEEKQKEFQGANIDDLKNDIDSKRSMGLEEFEIPENMSGGQAKIRSIANQALKTGGFNVDKYIHHAAK	soluble
MGSDKIHHHHHHMNIPNIRLLNQQLLNPLFREPKELVSWMGAMQAQNYSMVKWAVGMRLKSATIQTVEKALREGEILRTHVMRPTWHLVAAEDIRWMLKLSAQRIISANDSFAKGYDLDIPNELYTKAHDLLEKILCGKKSLTKQEIAEHFNRSGIVADNRRMTRFMARAEQEGIICSGEDRGSKCTYALLEERVPPMPELTKDESLARLARSYFRSHSPAVLQDFIWWSGLSVSDAKQAVYLIASELITEQWKEQTWYIHDICRTRGKLSGHIHLLPSYDEYLLGYKDRTDVLPLEHYSKAFTNNGLFFPIVLHNGQVIGNWDKSVKKKSVDLKYSWFRQVADMNEETLERERQKFTRFLEK	not soluble
GSPGISGGGGGILGLMAEQEPTAEQLAQIAAENEEDEHSVNYKPPAQKSIQEIQELDKDDESLRKYKEALLGRVAVSADPNVPNVVVTRLTLVCSTAPGPLELDLTGDLESFKKQSFVLKEGVEYRIKISFRVNREIVSGMKYIQHTYRKGVKIDKTDYMVGSYGPRAEEYEFLTPMEEAPKGMLARGSYNIKSRFTDDDRTDHLSWEWNLTIKKEWKD	soluble
MSNKEYRPTLAQLRTFATIAENKHFGTAAAKLSISQPSLSQALAALENGLGVQLIERSTRRVIVTPAGEMLLPYAKATLDAADAFLAHAH	soluble
MPANGGRGVGEGESPVSFFERLKAGLQKTKEALIGQVNTVMSVFRKIDDDLFDELEEALIRGDVGVATSAKLVEELRREARQKGLKNGDELLPLLKELVAERLGSGAAPLRLNEGGLTVILVVGVNGVGKTTTIGKLARHLREDRGLKVVLAAADTFRAAAMDQLKVWGERAGAEVVTGPEGADPAAVAFDGVKAARASGADVLIVDTAGRLHNKAHLMAELGKIARVLGREVPGAPHETLLVLDATTGQNAIQQTRLFKETVPVTGIALTKLDGTAKGGVVVAIADTEQVPVKFIGVGERLDDLQPFDPRQFVEALFSE	soluble
